Assay results published in paper PMC9481602 (2022).

Columns and labels:
[1] = target: ubiquitin acetylated at K48 (UniProt P0CG48 1-76, acetyllysine (AcK) at position 48); test: NMR
[2] = target: nonmodified ubiquitin (UniProt P0CG48 1-76); test: NMR

Binder: RFQQQLEQLNAMGFLNREANLQALIATGGDINAAIERLLGS (domain or fragment) [UBA domain of human Ubiquilin-2]
- Kd [1]: 1300 nM
- Kd [2]: 500 nM
